The nature of this series: soluble on expression in E. coli; label from the status in PepcDB or PDB records.
For “MSLELEQLTSNSIRPYIPKGTHPVETGKYLISTNEIDRMYQTVLQWIGNRIPGAIIYGRPRLGKTRAITYLMNCLPQDFGNNMPIYHVRCRTYKRPNENSFFEDLLLAVGHSIAIQGKANVKRNRLLKFLVERSDFSGTNKVVFFIDDAQRLVEIHYDWLMDLFNELEQYGITLTTILVGQKELVHQRSAFISGEKFQIVGRFMSQEYQFKGIKTPRDLKICLTGYDEYCEYPINSNWSFTKYFFADSFIRGLRLQNSAEELFQVFVDLRREHGLSQKVEIPMQHITLTVEYALKNFGIDNLDLTTIEKTHWEESIKNSGYIQSELYQTTEGHHHHHH”, the “soluble on expression in E. coli” value is reported as “not soluble”.

Consider “MSLENRGILFDKDGTCIRFDTLWQAGLQACFETLSMLAPHHSAEIKKILAIQEQRFLQKHLLDEVLYQELYQELAQFEELVEQGISSRWLEQFFYDYLRKNLKKIEPIGDLKQLFLELKRKNYKIGLATSDTLPATMLIMEYLGLTEMFDFIATGDRYLPKPDADMLQAFCQSCQLKATEVIMVGDSLVDVFMGTCHGKAGIGVLTGNCQSTDFEKFEVAYFRDIHEIPYQELWGNTKKKKIYYVEGHHHHHH”, for which the “soluble on expression in E. coli” value is “soluble”.

Take “MSLENVTMGFWYVSPRRGPHRTTRQISAGTWEEVRPNYTTPVADAMDRLMKTTPEDIAGRLLLLHGPPGTGKTSALRTLARSWRDWCQVDCVLDPERLFSDVGYLMDIAIGEEDGTGKGRWRLLLLEDCDELIRGEAKHTAGQALSRLLNLTDGLLGQGRNVLVGVTTNEDLERLHPAVVRPGRCLARIEVGPLTRREAVNWLGTEEGVGREGATLAELYALRRGTSPTSLPEPREGAEGHHHHHH”: the “soluble on expression in E. coli” value is given as “soluble”.

“MSLEPDPDYVEPRLEGPQKQAASEIIEDVRKGGFHVSLIDGVTGSGKTEVYFEAVAETLRQGKQVLILLPEIALTAAFLERFQDRFGAKPAEWHSDLSPRMREKVWRQAVTGEIKVVAGARSALFLPFDNLGLIIVDEEHDPAYKQEDRVFYNARDMAVVRARIAEFPVVLVSATPSVESQVNGSSGRYNTIHLHTRFGDAAMPDLHLVDMRRHPPERGGFLSPVLLRGIGKTIEKGEQSLLFLNRRGYAPLTLCRVCGHRFQCPQCSSWLVEHRFRNQLQCHQCGHNEPTPDHCPECGTFDHLVACGPGVERIAEEVEKHFPEARTIVLSSDLMGVKRLRLELEAIVKGEADIVIGTQLVAKGHNFPLMTLVGIVDADLGLANGDPRAAERTFQLLSQVTGRAGRTGLKSHGLLQTYQPQHPVMQAIVSGDASAFYEREIVEREKAVLPPFGRLASIIVSADTRAEAETHARGLRAAAPQVTGIMLLGPAEAPLALIRGRHRFRLLVHGRRNSDMQSFLRTLLASGPKERGSVHVQLDIDPQSFLEGHHHHHH”: the “soluble on expression in E. coli” value is “soluble”.

As for “MSLEQCYTDVTEFAIPASTQKLYLSPVLDGFNSEIIAYNLSTSPNLEQVQTMLEQAFTEKHYENTILHSDQGWQYQHDSYHQFLEGKGIQASMSRKGNSQDNGMMESFFGILKSEMFYGYEKTFKSLNQLEQAIVDYIDYYNNKRIKVKLKGLSPVQYRTKSFGEGHHHHHH”, the “soluble on expression in E. coli” value is recorded as “soluble”.

Consider “MSLERKKYNFNSEWRLQIGDFPEAKQSQFDDSRWKAVTLPHAFNEDEAFKVSIEQLTDTVVWYRKHFRIPASGKKQKVFIEFEGVRQAGDFYLNGQYLGKHENGVMAAGFDLTPYIKEGDNVLAVRTDNDWMYREKSTNSKFQWNDRNFNANYGGLPKNVFLYVTDEVYQTLPLYSNLKTTGVYIYAKDIDVKGRTATIHAESEVKNDSREPRQFSYQVVLLDADGKQVKSFEGEKVTLQGGETRVVKAASKVNNLHFWSWGYGYLYTVQTILKDNKNQVFDEVSTRTGFRKTRFAEGKIWLNDRVIQMKGYAQRTSNEWPAVGLSVPAWLSDYSNGLVVKGNGNLVRWMHVTPWKQDVESCDRVGLIQAMPAGDSEKDRTGRQWDQRTELMRDAIIYNRNNPSILFYECGNKGISREHMIEMKAIRDQYDPFGGRAIGSREMLDIREAEYGGEMLYINKSEHHPMWATEYCRDEGLRKYWDEYSYPFHKEGDGPLHRNQPATDYNHNQDMLAIAMIRCWYDYWRERPGTGRRVSSGGAKIIFSDTNTHHRGEENYRRSGVTDPMRIEKDAFFAHQVMWNGWVDTEEDNTYIIGHWNYPANTVKPVYVVSTGEEVELFLNSQSLGKGKREYNFLFTFDNVAFKAGKLEAVSYNKAGKEISRYAVSTVGEPAGLKLTTIQNPEGFHADGADLALIQVEVVDKDGKRCPLDNRTIQFDLKGNAEWRGGIAQGKDNYILNTSLPVECGINRALIRSTTQAGKITLTAKAEGLPSATITLETLPVKVSNGLSTYLPQMTLKGNLDKGKTPLTPSYKDTKRDIRIVSAKAGANNETVNQSFDDNERSEWMNDGKLSTAWITYTLEKEAAIDDICIKLNGWRSRSYPLEVFAGNTMIWSGDTNKSLGYVHLNVEKPVRSKQITIRLKGNTSDQDAFGQITEVAAKAANDMELEAKANKNNANLRIIEIEFLEAIKEGHHHHHH”, for which the “soluble on expression in E. coli” value is “soluble”.

Regarding “MSLESMLSHPPIPIADMAEHTERLKANDSLKLSQEYESIDPGQQFTWEHSNLEVNKPKNRYANVIAYDHSRVILQPIEGIMGSDYINANYVDGYRRQNAYIATQGPLPETFGDFWRMVWEQRSATIVMMTRLEEKSRIKCDQYWPNRGTETYGFIQVTLLDTIELATFCVRTFSLHKNGSSEKREVRQFQFTAWPDHGVPEYPTPFLAFLRRVKTCNPPDAGPIVVHCSAGVGRTGCFIVIDAMLERIKPEKTVDVYGHVTLMRSQRNYMVQTEDQYSFIHEALLEAVGCGNTEVPARSLYAYIQKLAQVEPGEHVTGMELEFKRLANSKAHTSRFISANLPCNKFKNRLVNIMPYESTRVCLQPIRGVEGSDYINASFIDGYRQQKAYIATQGPLAETTEDFWRMLWENNSTIVVMLTKLREMGREKCHQYWPAERSARYQYFVVDPMAEYNMPQYILREFKVTDARDGQSRTVRQFQFTDWPEQGVPKSGEGFIDFIGQVHKTKEQFGQDGPISVHCSAGVGRTGVFITLSIVLERMRYEGVVDIFQTVKMLRTQRPAMVQTEDEYQFCYQAALEYLGSFDHYATEGHHHHHH”, the “soluble on expression in E. coli” value was “soluble”.

Take “MSLETDDQYYRAIKKIKEAAEASNRAYLTSSKLADMLGISQQSASRIIIDLEKNGYITRTVTKRGQILNITEKGLDVLYTEFADLSRILAIKNNVVITGTVTSGMGEGRYYVARKQYIIQFQEKLGIIPYLGTLNIKVDQASLPELRKIRGFRGIHIEGFKTEDRTFGSVKAFPAKIQNIPCFVIMPERTVYTDVIEIISDKYLREEINLHDGDRVSVEVYTEGHHHHHH”: the “soluble on expression in E. coli” value was “soluble”.

Take “MSLETINNSAKKQPGLYISGQYKPSVSVFSNFSVKETNVPTKQLIALKKDINSVAVGSNATTGISNPGNFTIPYTAEFQDNVANFNGAVGYSFPDSLRIEIEGFHEKFDVKNPGGYTQVKDAYRYFALARDLKDGFFEPKAEDTGVYHTVMKNDGLSILSTMVNVCYDFSVDELPVLPYICAGMGINAIEFFDALHVKFAYQGKLGISYQLFTKVNLFLDGYYHQVIGNQFKNLNVNHVYTLKESPKVTSAVATLDIAYFGGEVGIRFTFEGHHHHHH”: the “soluble on expression in E. coli” value is on record as “not soluble”.

“MSLEVKVGLAPMAGYTDSAFRTLAFEWGADFAFSEMVSAKGFLMNSQKTEELLPQPHERNVAVQIFGSEPNELSEAARILSEKYKWIDLNAGCPVRKVVKEGAGGALLKDLRHFRYIVRELRKSVSGKFSVKTRLGWEKNEVEEIYRILVEEGVDEVFIHTRTVVQSFTGRAEWKALSVLEKRIPTFVSGDIFTPEDAKRALEESGCDGLLVARGAIGRPWIFKQIKDFLRSGKYSEPSREEILRTFERHLELLIKTKGERKAVVEMRKFLAGYTKDLKGARRFREKVMKIEEVQILKEMFYNFIKEVEGGSHHHHHH”: the “soluble on expression in E. coli” value is “soluble”.

Consider “MSLEVTTPGKLFIAGEYAVVEPGHPAIIVAVDQFVTVTVEETTDEGSIQSAQYSSLPIRWTRRNGELVLDIRENPFHYVLAAIHLTEKYAQEQNKELSFYHLKVTSELDSSNGRKYGLGSSGAVTVGTVKALNIFYDLGLENEEIFKLSALAHLAVQGNGSCGDIAASCYGGWIAFSTFDHDWVNQKVATETLTDLLAMDWPELMIFPLKVPKQLRLLIGWTGSPASTSDLVDRVHQSKEEKQAAYEQFLMKSRLCVETMINGFNTGKISVIQKQITKNRQLLAELSSLTGVVIETEALKNLCDLAESYTGAAKSSGAGGGDCGIVIFRQKSGILPLMTAWEKDGITPLPLHVYTYGQKECKEKHEGHHHHHH”, for which the “soluble on expression in E. coli” value is “soluble”.

With “MSLFFHSDVLSVSELNAFAKSLLENHLAGLWIAGEVSNLTRAASGHYYFSLKDSRAQVRCAMFKGAAVRLAKPLKEGDHIEVSGKISIYEARGEFQITVNEVRLKGLGQLYEAYERLKAQLQAEGAFAAERKKPLPVRPQCIGIVTSLAAAALRDVVTTLKRRAPEIPVIVYPTPVQGAGSELQIAQAIKTASQRAECDVLIVCRGGGSIEDLWAFNEEPVVRAIESCTVPVVSGVGHETDFTLADFVADMRAPTPTGAAELVSPNRQESLHRLAQAQCRLKTVLEQRYFDASQKLDWLARQIRHPRQKLDEQRASIGKLAQTLSYSMTQNVRTHTARFERQTQALKHCRPDVSVCKKNIDRFQTALSHAFHQLLTHRRQSLTAQAALLEAVSPQHILERGFSVVKNTRGQVIRNADVLKQGQKLHIIFADGETDVRVSKEQGQQDLFDCIEGHHHHHH”, the “soluble on expression in E. coli” value was “not soluble”.

Take “MSLFIHIVGPGDSLFSIGRRYGASVDQIRGVNGLDETNIVPGQALLIPLYVYTVQPRDTLTAIAAKAFVPLERLRAANPGISPNALQAGAKITIPSISNYIAGTLSFYVLRNPDLDRELINDYAPYSSSISIFEYHIAPNGDIANQLNDAAAIETTWQRRVTPLATITNLTSGGFSTEIVHQVLNNPTARTNLVNNIYDLVSTRGYGGVTIDFEQVSAADRDLFTGFLRQLRDRLQAGGYVLTIAVPAKTSDNIPWLRGYDYGGIGAVVNYMFIMAYDWHHAGSEPGPVAPITEIRRTIEFTIAQVPSRKIIIGVPLYGYDWIIPYQPGTVASAISNQNAIERAMRYQAPIQYSAEYQSPFFRYSDQQGRTHEVWFEDVRSMSRKMQIVREYRLQAIGAWQLTLAEGHHHHHH”: the “soluble on expression in E. coli” value is recorded as “soluble”.

On to “MSLFTGENWDPYEWAKVFKKSGAKFVVLVAEHHDGFALWESNYTRWCATKIGPKRDIVRELKEAVEGQGLIFGISYHRAEHWWFFDQGMKIESDVKDPRYLDLYGPAQSASLNPRDPPSLDNVQPNDEFLMDWLLRIVEAVEKYRPWLVYFDWWIANPSFQPYLKAFASYYYNRSYKWGIEPVIIYKQGAFGEGTAIPDLAERGTIKNVYPSTWLADTSIDYKSWGYIKDAEYKLPSVILSHLGDVVSKNGVFLLNIGPKADGTIPEEAKRILLDVGDWLNVNGEAIFGSKPWRVYGEGPSGINEGGFFTERKITLGYQDVRYTVKDYYPRQRHIYAILFGKPKEITLRSFMKNLKLIEEAVIVDVSRLDGKGKLEWSLSDEGLKIKIEEVIRAPLVIRVILDYREGHHHHHH”, for which the “soluble on expression in E. coli” value was “not soluble”.

For the sequence “MSLGAMCFYHYWFLGKQLLEKPAEILLENKEINMPFLFSWANEPWTRAWDGSHRNVLMPQSYGTEADWEKHFNYLKPFFEDERYLKHDGKPIFIIYRTANFALCNEWISCWRELSKNTSFKDIHFVSSYTSFENDPRKLDFDAHLYFEPMCTVGHNLGYFNKKIKKINARLKRVINPKVWTTYVENTLQYDYLWEKILKKKINKTQYPGAFVDWDNSARKKSRALVIHGGSPKKFGLYLDKLYKRSIENNCPFLFINAWNEWAEGTYLEPDEKNKYSYLEELKKVIEKYEVEGHHHHHH”, the “soluble on expression in E. coli” value was “not soluble”.

Take “MSLGARELHAHLKGGAATVCRCWAVTRRDGTVFGFTDHDRDLTFEGRLFRAETGLTSSALQQTTGLSVDNAETVGALSHVSVTEADLLAGRFDGAEVLAWLVNWADVSERLLQFRGTLGEITHSGGRFRAELRGLTEALNQPQGRVYQRSCQAVLGDRACGFDLSAEEFATERAVETVVGRQSFSFEGLHSFPDRWFEQGRLVVMTGEAAGAMGVIKSDRRRGEVRTVELWEALGPQITVGDRVRLEAGCDRMAETCRLKFNNLRNFRGFPHLSGEDWLSAYPAATGTHDGGSLWEEGHHHHHH”: the “soluble on expression in E. coli” value is “soluble”.

Source of the values: the DeepSol protein solubility set.
